Data set [1] deals with RNase E NTD 8x mutant (Escherichia coli). In words: BLI. To be noted: 5' monophosphate; 3' U-biotin ligated; BLI: 25 mM HEPES pH 7.0, 150 mM NaCl, 100 mM KCl, 10 mM CaCl2, 0.5 mM TCEP; RNA immobilised on streptavidin sensors, protein 0-500 nM; temperature not stated.
The subject of data set [2] is RNase E NTD WT (Escherichia coli). Briefly: BLI. To be noted: 3' U-biotin ligated, BLI: 25 mM HEPES pH 7.0, 150 mM NaCl, 100 mM KCl, 10 mM CaCl2, 0.5 mM TCEP, RNA immobilised on streptavidin sensors, protein 0-500 nM, temperature not stated.

One may read the Kd as a measure of binding affinity in units of concentration. Low readings indicate tighter binding, high ones weaker binding. In the case of RprA 5'-monophosphate, the Kd in data set [1] turned out to be 47 nM; in data set [2] (5' monophosphate) it was 15.6 nM.

As for RprA 5'-triphosphate, the Kd in data set [2] (5' triphosphate) was 8.6 nM.
